Measurements published in patent US20110104140A1, “USE OF NON-CATALYTIC FORM OF HEPARANASE AND PEPTIDES THEREOF FOR REVERSING THE ANTI-COAGULANT EFFECTS OF HEPARINOIDS” (priority 2006, published 2011).
Entries after “also recorded” stand apart in the source; their conditions may differ.

What was measured:
[1] = tested on: extrinsic coagulation pathway; experiment: Prothrombin time (PT); assay type: biochemical; conditions: for Effect on PT response: not shown
Description: (§1) Coagulation Assays • aPTT-Automatic determination of activated partial thromboplastin time (aPTT) of samples was performed in duplicates, by mixing pooled normal plasma with aPTT reagent (FSL actin, Dade Behring). After exactly 10 min, the clotting time was determined on Sysmex CA1500 analyzer. • Xa activity—Photometric determination of anti-Xa activity was performed to evaluate the activity of LMWH in human plasma on Sysmex CA1500 analyzer, using the LMWH Kit (Chromogenics). • PT—Prothrombin time (PT) was determined using the Innovin reagent (Dade Behring) on Sysmex CA1500 analyzer. • Protein C—Protein C activity was determined by the Berichrom Protein C kit, and ATIII was measured by the chromogenic Berichrom Antithrombin III kit (both from Dade Behring). • Platelet aggregation—Platelet aggregation was measured on normal donor platelets utilizing the Payton Aggregocorder type aggregometer (Payton Associates). • Protein S—Free Protein S was measured with the Liatest kit (Diagnostica Stago). All coagulation assays were subjected to external quality control program (NEQUAS, Sheffield, UK).
(§2) To examine the possible involvement of heparanase in the coagulation process, variety of coagulation tests including activated […] (aPTT, testing the intrinsic coagulation pathway), prothrombin time (PT, testing the extrinsic coagulation pathway), thrombin time (TT, testing thrombin mediated fibrin generation), as well as protein C and protein S (both coagulation inhibitors) were performed by the inventors.

[2] = tested on: heparin anti-coagulant effects on the aPTT response; experiment: aPTT assay in normal plasma with heparin; assay type: biochemical
Description: In the aPTT assay, clot is generated within normal plasma by the intrinsic coagulation pathway. […] Abbreviations: cont. (control), N. coag. (No coagulation).
as §1
The extent of blood coagulation responses requires the balance by anticoagulant components in the microenvironment of the endothelium, represented by cell surface HSPG and associated coagulation inhibitors. Heparanase, which is released from platelets upon activation may function as a physiological procoagulant. […] Two coagulation assays are affected by heparinoids: activated partial thromboplastin time (aPTT) which measures the intrinsic coagulation pathway, and thrombin time (TT) which measures the thrombin-mediated conversion of fibrinogen to fibrin. As illustrated by FIG. 1, in both cases, heparin forms a ternary complex with the natural thrombin inhibitor antithrombin III (ATIII) and thrombin, resulting in thrombin inactivation. […]

[3] = tested on: heparin anti-coagulant effects on thrombin activity; experiment: Thrombin time assay (TTA) in normal plasma with heparin; assay type: biochemical; conditions: FIG. 3
Excerpt: In the thrombin time assay (TTA), clot is generated within normal plasma. […] Abbreviations: cont. (control), sec. (seconds), N. coag. (No coagulation).
The extent of blood coagulation responses requires the balance by anticoagulant components in the microenvironment of the endothelium, represented by cell surface HSPG and associated coagulation inhibitors. Heparanase, which is released from platelets upon activation may function as a physiological procoagulant. […] Two coagulation assays are affected by heparinoids: activated partial thromboplastin time (aPTT) which measures the intrinsic coagulation pathway, and thrombin time (TT) which measures the thrombin-mediated conversion of fibrinogen to fibrin. As illustrated by FIG. 1, in both cases, heparin forms a ternary complex with the natural thrombin inhibitor antithrombin III (ATIII) and thrombin, resulting in thrombin inactivation. […] The inventors therefore next examined the effect of heparanase on the heparin induced reduction of both, aPTT and TT responses.

Factor Xa [4] = experiment: Factor Xa activity in plasma with heparin / LMWH (anti-Xa activity); assay type: biochemical, human; conditions: for Reversal of Factor Xa inhibitory effect of heparin: peptide, dose dependent, complete at 1 mg/ml, FIG. 6; for Reversal of heparin anti-Xa activity: increasing doses of heparanase proenzyme, in the presence of AT
Description: Heparin inhibits the activity of activated coagulation factor X (Xa). […] Abbreviations: act. (activity), plas. (plasma).
as §1
In recent years LMWH became widely used anti-coagulants due to their prominent anti-coagulant activity, and improved pharmacokinetics compared with un-fractionated heparin. However, there is still no existing anti-dot to inhibit these clinically highly abundant anti-coagulants, in the case of urgent clinical needs. Such needs may occur during extensive bleedings (e.g. brain) caused by LMWH overdose, or un-controlled bleedings in LMWH treated individuals due to other medical causes. Therefore, the effects of heparanase pro-enzyme on the anti-coagulant activities of heparinoids, was next tested by the inventors. […] Similar effects of heparanase were observed on plasma treated with unfractionated heparin (not shown).

heparanase = target: T1, heparanase (Homo sapiens, UniProt Q9Y251); conditions: previously shown, WO 2005/071070; cited from earlier work
T1 sequence (Q9Y251 158-543 limits assumed): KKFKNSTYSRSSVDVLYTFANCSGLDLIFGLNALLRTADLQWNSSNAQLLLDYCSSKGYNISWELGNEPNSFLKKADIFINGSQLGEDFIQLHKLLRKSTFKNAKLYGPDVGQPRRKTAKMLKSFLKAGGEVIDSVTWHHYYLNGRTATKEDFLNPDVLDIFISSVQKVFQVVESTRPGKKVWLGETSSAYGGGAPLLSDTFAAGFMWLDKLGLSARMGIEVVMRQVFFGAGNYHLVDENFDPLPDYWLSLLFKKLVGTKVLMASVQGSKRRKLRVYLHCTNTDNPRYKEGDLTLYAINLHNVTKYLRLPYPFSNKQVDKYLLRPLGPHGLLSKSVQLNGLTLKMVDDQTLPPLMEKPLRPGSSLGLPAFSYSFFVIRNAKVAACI

Antithrombin III = target: T2, Antithrombin III (Homo sapiens, UniProt P01008); experiment: Antithrombin III (chromogenic Berichrom Antithrombin III kit); assay type: biochemical; conditions: Heparanase 10 μg/ml; normal range 74-114%
T2 construct: from tissue; host or cells: normal plasma
Description: as §1

[5] = tested on: intrinsic coagulation pathway; experiment: Activated partial thromboplastin time (aPTT), direct effect; assay type: biochemical; conditions: Heparanase 10 μg/ml; normal range 25-34 sec
Description: as §1, with “UK). […]” for “UK).”

Protein S = target: T3, Protein S (Homo sapiens, UniProt P07225); experiment: Protein S activity (Liatest kit); assay type: biochemical; conditions: Heparanase 10 μg/ml; normal range 54-138%
T3 construct: from tissue; host or cells: normal plasma
T3 sequence (P07225 42-676): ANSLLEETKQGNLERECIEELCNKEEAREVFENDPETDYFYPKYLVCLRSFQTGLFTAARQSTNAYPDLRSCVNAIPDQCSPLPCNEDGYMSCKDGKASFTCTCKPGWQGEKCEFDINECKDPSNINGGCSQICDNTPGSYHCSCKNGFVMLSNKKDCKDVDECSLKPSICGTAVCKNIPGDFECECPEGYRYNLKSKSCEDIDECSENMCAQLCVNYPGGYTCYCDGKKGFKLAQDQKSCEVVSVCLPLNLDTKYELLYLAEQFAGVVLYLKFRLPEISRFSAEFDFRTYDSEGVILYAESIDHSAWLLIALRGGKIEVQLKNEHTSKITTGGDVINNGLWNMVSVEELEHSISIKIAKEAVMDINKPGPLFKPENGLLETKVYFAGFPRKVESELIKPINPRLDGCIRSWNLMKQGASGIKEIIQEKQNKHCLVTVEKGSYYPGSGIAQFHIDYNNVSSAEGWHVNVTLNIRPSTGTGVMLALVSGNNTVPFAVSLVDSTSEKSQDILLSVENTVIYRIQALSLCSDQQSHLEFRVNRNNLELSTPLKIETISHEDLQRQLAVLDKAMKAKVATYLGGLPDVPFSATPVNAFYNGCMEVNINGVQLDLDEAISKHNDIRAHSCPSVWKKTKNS
Description: as §1

normal donor platelets = experiment: Platelet aggregation stimulated by mediators (ADP, collagen, thrombin); assay type: cell-based; conditions: Heparanase 10 μg/ml
Description: as §1
The effects of heparanase on platelet aggregation stimulated by a variety of mediators (e.g. ADP, collagen, thrombin), was next tested.

Factor Xa [6] = target: T4, Factor Xa (Bos taurus, UniProt P00743); experiment: Factor Xa activity, direct effect; assay type: biochemical, human; conditions: Heparanase 10 μg/ml, no heparinoid, normal value 100%
T4 construct: purchased Chromogenics
Description: as §1

[7] = tested on: thrombin mediated fibrin generation; experiment: Thrombin time (TT), direct effect; assay type: biochemical; conditions: Heparanase 10 μg/ml; normal range 14-21 sec
Excerpt: Another test may be the Thrombin Time (TT) assay which reflects the time taken for a plasma sample to clot on addition of thrombin. The test is essentially a measure of fibrinogen to fibrin conversion and the factors affecting this terminal stage of the coagulation system.
as §2

Factor Xa [8] = experiment: Factor Xa activity ex vivo in plasma of LMWH-treated patients; assay type: biochemical, human; conditions: for Factor Xa activity in LMWH-treated patient plasma: plasma of twelve LMWH-treated patients, measured within 5 min, recombinant pro-heparanase, FIG. 5A
Description: FIG. 5A. Heparanase pro-enzyme was added to plasma derived from twelve independent LMWH-treated patients. Factor Xa activity was then measured, within 5 min. Each sample was measured in the absence (open bars) or presence (filled bars) of […] recombinant pro-heparanase. Each measurement was performed in duplicates (the average of each duplicate is shown, with differences between measurements <10%).
FIG. 5B. Summary of the effect of pro-heparanase on Factor Xa activity in the presence of heparin treated plasma, and the 12 LMWH-treated patient derived plasma samples (average±S.D.). Abbreviations: act. (activity), pat. (patient), pla. (plasma) cont. (control).
In order to assess possible clinical effects of heparanase pro-enzyme as an anti-dot to LMWH, heparanase pro-enzyme effect on Factor Xa activity ex vivo, was next tested in plasma derived from patients treated with LMWH, which were incubated with 10 •g/ml heparanase proenzyme. […] Thus, heparanase pro-enzyme reduced FXa inhibitory effects of LMWH in individual patient plasma samples, even at high levels of LMWH. Overall, the level of FXa inhibitory activity of LMWH in treated patients was reduced approximately by 50% (FIG. 5B).

Protein C = target: T5, Protein C (Homo sapiens, UniProt P04070); experiment: Protein C activity (Berichrom Protein C kit); assay type: biochemical; conditions: Heparanase 10 μg/ml; normal range 75-151%
T5 construct: from tissue; host or cells: normal plasma
Description: as §1

T4 sequence (P00743 234-492 limits assumed): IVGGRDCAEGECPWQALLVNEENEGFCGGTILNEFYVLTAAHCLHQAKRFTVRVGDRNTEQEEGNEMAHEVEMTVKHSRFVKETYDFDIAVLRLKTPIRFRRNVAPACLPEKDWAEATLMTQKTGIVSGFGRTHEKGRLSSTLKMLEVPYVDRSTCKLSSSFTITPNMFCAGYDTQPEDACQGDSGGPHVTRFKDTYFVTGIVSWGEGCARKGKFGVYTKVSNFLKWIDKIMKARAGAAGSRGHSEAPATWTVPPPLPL
T4 sequence (P00743 41-180 limits assumed): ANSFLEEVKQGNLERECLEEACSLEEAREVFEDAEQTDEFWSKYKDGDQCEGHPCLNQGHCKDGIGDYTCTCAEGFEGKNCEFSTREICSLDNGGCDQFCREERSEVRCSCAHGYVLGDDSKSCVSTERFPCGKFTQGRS
T2 sequence (P01008 33-464): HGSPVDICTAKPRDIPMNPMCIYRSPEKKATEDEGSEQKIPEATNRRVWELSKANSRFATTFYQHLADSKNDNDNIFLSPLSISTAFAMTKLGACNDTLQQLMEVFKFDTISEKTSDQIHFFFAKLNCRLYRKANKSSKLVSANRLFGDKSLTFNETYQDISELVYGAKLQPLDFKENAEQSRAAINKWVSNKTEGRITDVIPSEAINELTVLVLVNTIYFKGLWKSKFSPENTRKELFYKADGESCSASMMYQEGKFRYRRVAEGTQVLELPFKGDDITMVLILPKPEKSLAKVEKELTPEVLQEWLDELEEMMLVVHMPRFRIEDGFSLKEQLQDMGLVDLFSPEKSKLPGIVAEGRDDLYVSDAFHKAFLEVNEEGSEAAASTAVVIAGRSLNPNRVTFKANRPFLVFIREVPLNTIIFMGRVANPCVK
T5 sequence (P04070 19-461 limits assumed): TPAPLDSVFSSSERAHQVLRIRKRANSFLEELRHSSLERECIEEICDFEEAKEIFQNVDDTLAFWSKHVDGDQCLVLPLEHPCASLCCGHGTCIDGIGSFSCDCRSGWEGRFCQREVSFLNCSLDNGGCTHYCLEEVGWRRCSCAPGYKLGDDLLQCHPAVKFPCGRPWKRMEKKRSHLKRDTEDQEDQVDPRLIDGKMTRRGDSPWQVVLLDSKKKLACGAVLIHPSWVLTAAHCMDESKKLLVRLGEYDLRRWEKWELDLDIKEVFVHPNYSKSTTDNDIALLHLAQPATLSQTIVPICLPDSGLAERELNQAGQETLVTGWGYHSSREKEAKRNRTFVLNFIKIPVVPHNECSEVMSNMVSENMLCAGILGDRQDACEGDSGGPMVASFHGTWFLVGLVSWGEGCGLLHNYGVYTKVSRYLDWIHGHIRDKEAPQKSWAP

Molecule: heparin [reference compound]
- Effect on PT response [1]: neither heparin nor heparanase pro-enzyme affected
- Inhibition of clot formation in aPTT assay ([2]; 1 u/ml heparin, normal plasma, FIG. 2): complete coagulation inhibition
- Inhibition of clot formation in thrombin time assay ([3]; 0.5 u/ml heparin): complete coagulation inhibition

Molecule: Lys158-Asp171 heparin-binding peptide: fourteen amino acid peptide of residues Lys158-Asp171 of human heparanase, heparin-binding domain, SEQ ID NO: 1 (KKFKNSTYSRSSVD; listed as Homo sapiens)
- Reversal of Factor Xa inhibitory effect of LMWH (Factor Xa [4]; peptide 1 mg/ml, FIG. 7): completely reverse
- Reversal of Factor Xa inhibitory effect of UFH (Factor Xa [4]; peptide 1 mg/ml, FIG. 7): completely reverse
- Reversal of Factor Xa inhibitory effect of LMWH (Factor Xa [4]; peptide 1 mg/ml, FIG. 7, listed as Lys158-Asp171 heparin binding (HB) peptide): abolished
- Reversal of Factor Xa inhibitory effect of heparin (Factor Xa [4]): completely reverse
- Reversal of Factor Xa inhibitory effect of heparin (Factor Xa [4]; listed as Lys158-Asp171 heparin binding (HB) peptide): abolished the FXa inhibitory effects of heparin
- Inhibition of heparanase enzymatic activity (heparanase): inhibited heparanase enzymatic activity in a dose-responsive manner

Molecule: Enoxaparin [low molecular weight heparin, reference compound]
- Effect of heparinoid on Factor Xa activity (Factor Xa [4]; FIG. 4): reduces significantly

B1: Heparanase pro-enzyme: latent 65 kDa human heparanase protein with Myc and His tags, purified from conditioned medium of CHO cells (protein, UniProt Q9Y251 36-543, looked up)
pro-form: QDVVDLDFFTQEPLHLVSPSFLSVTIDANLATDPRFLILLGSPKLRTLARGLSPAYLRFGGTKTDFLIFDPKKESTFEERSYWQSQVNQDICKYGSIPPDVEEKLRLEWPYQEQLLLREHYQKKFKNSTYSRSSVDVLYTFANCSGLDLIFGLNALLRTADLQWNSSNAQLLLDYCSSKGYNISWELGNEPNSFLKKADIFINGSQLGEDFIQLHKLLRKSTFKNAKLYGPDVGQPRRKTAKMLKSFLKAGGEVIDSVTWHHYYLNGRTATKEDFLNPDVLDIFISSVQKVFQVVESTRPGKKVWLGETSSAYGGGAPLLSDTFAAGFMWLDKLGLSARMGIEVVMRQVFFGAGNYHLVDENFDPLPDYWLSLLFKKLVGTKVLMASVQGSKRRKLRVYLHCTNTDNPRYKEGDLTLYAINLHNVTKYLRLPYPFSNKQVDKYLLRPLGPHGLLSKSVQLNGLTLKMVDDQTLPPLMEKPLRPGSSLGLPAFSYSFFVIRNAKVAACI
modifications: pro-form Myc and His tags
notes: latent 65 kDa human heparanase protein with Myc and His tags, purified from conditioned medium of CHO cells
- Antithrombin III (Antithrombin III): 103%
- Activated partial pro-thrombin time (aPTT) [5]: 29.4 s
- Reversal of heparin anti-Xa activity (Factor Xa [4]; FIG. 4): restoring Xa activity to normal levels
- Reversal of heparin anti-Xa activity (Factor Xa [4]; FIG. 4, listed as heparanase proenzyme): restoring FXa activity to the normal level
- Protein S-activity (Protein S): 105%
- Platelet aggregation (normal donor platelets): No effects of heparanase
- Prothrombin time (PT) ([1]; Heparanase 10 μg/ml, normal range 10.03-12.43 sec, single representative experiment): 10.6 s
- Effect on PT response [1]: neither heparin nor heparanase pro-enzyme affected
- Factor Xa-activity (Factor Xa [6]): 102%
- Factor Xa-activity (Factor Xa [6]; listed as heparanase proenzyme): had no effect
- Pro-coagulant effects at low concentration ([2]; heparanase concentrations of less then 5 μg/ml, not shown, assay not specified): no pro-coagulant effects
- Reversal of heparin anti-coagulant effects on the aPTT response ([2]; normal plasma, neutral pH, FIG. 2): significantly reversed
- Thrombin time (TT) [7]: 17.3 s
- Reduction of FXa inhibitory activity of LMWH in treated patients (Factor Xa [8]; 10 •g/ml heparanase proenzyme, overall of 12 patients, FIG. 5B): ~50%
- Factor Xa activity in LMWH-treated patient plasma (Factor Xa [8]): significant elevation
- Factor Xa activity in LMWH-treated patient plasma (Factor Xa [8]; listed as heparanase pro-enzyme): elevated significantly
- Protein C-activity (Protein C): 111%
- Reversal of heparin anti-coagulant effects on thrombin time [3]: significantly prevented; also recorded: significantly reversed
